Measured values from the supplement of paper PMC10567573.

B1: TRIM9 (parent)
chain: CVQCKMPVCYQCLEEGKHSSHEVK

Variants of: B1
Assay: protein stability index of a GFP-peptide fusion (GPS, HEK-293T) (PSI 1-6); higher = more stable
Conditions: c terminus: a fixed tail appended
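Further: lentivirally expressed fusions sorted by FACS into six bins by GFP to DsRed ratio, PSI derived from sequencing read proportions per bin multiplied by bin number.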

In order of falling protein stability index:
1. CVQCKSPVCYQCLEEGKHSSHEVK  4.97
2. CVQCKGPVCYQCLEEGKHSSHEVK  4.93
3. CVQCKMPVCYGCLEEGKHSSHEVK  4.92
4. CVQCKMPVCYCCLEEGKHSSHEVK  4.83
5. CVQCKDPVCYQCLEEGKHSSHEVK  4.71
6. CVQCKMGVCYQCLEEGKHSSHEVK  4.59
7. CVHCKMPVCYQCLEEGKHSSHEVK  4.52
8. CVNCKMPVCYQCLEEGKHSSHEVK  4.49
9. CVQCKKPVCYQCLEEGKHSSHEVK  4.46
10. CVQCGMPVCYQCLEEGKHSSHEVK  4.38
11. CVQCKEPVCYQCLEEGKHSSHEVK  4.37
12. CVQCKQPVCYQCLEEGKHSSHEVK  4.36
13. CVQCKMEVCYQCLEEGKHSSHEVK  4.35
14. CVQCKMMVCYQCLEEGKHSSHEVK  4.33
15. CVQCKHPVCYQCLEEGKHSSHEVK  4.3
16. CVQCKMPVCYNCLEEGKHSSHEVK  4.27
17. CVQCKMPVCYQELEEGKHSSHEVK  4.25
18. CVQCEMPVCYQCLEEGKHSSHEVK  4.22
19. CVRCKMPVCYQCLEEGKHSSHEVK  4.22
20. CVQCKNPVCYQCLEEGKHSSHEVK  4.22
21. CVQCKMPVCYQDLEEGKHSSHEVK  4.2
22. CVQCKRPVCYQCLEEGKHSSHEVK  4.17
23. CVQCRMPVCYQCLEEGKHSSHEVK  4.15
24. CVQCKMNVCYQCLEEGKHSSHEVK  4.14
25. CVQCKVPVCYQCLEEGKHSSHEVK  4.13
26. CVQCKMPVCYTCLEEGKHSSHEVK  4.12
27. CVSCKMPVCYQCLEEGKHSSHEVK  4.12
28. CVQCKMCVCYQCLEEGKHSSHEVK  4.06
29. CVQCKMPVCYDCLEEGKHSSHEVK  4.05
30. CVQCNMPVCYQCLEEGKHSSHEVK  4.04
31. CVQCKMAVCYQCLEEGKHSSHEVK  4.02
32. CVCCKMPVCYQCLEEGKHSSHEVK  3.99
33. CVQCKLPVCYQCLEEGKHSSHEVK  3.99
34. CVQCKTPVCYQCLEEGKHSSHEVK  3.96
35. CVQCKMPVCYKCLEEGKHSSHEVK  3.95
36. CVQCKAPVCYQCLEEGKHSSHEVK  3.95
37. CVDCKMPVCYQCLEEGKHSSHEVK  3.91
38. CVQCSMPVCYQCLEEGKHSSHEVK  3.9
39. CVQCKFPVCYQCLEEGKHSSHEVK  3.89
40. CVQCMMPVCYQCLEEGKHSSHEVK  3.87
41. CVQCCMPVCYQCLEEGKHSSHEVK  3.84
42. CVQCKMKVCYQCLEEGKHSSHEVK  3.84
43. CVQCKMQVCYQCLEEGKHSSHEVK  3.83
44. CVECKMPVCYQCLEEGKHSSHEVK  3.82
45. CVQCKMPVCYQGLEEGKHSSHEVK  3.81
46. CVQCHMPVCYQCLEEGKHSSHEVK  3.8
47. CVQCKYPVCYQCLEEGKHSSHEVK  3.79
48. CVQCKMPVCYRCLEEGKHSSHEVK  3.77
49. CVQCKMPVCYPCLEEGKHSSHEVK  3.76
50. CVKCKMPVCYQCLEEGKHSSHEVK  3.73
51. CVGCKMPVCYQCLEEGKHSSHEVK  3.73
52. CVQCKCPVCYQCLEEGKHSSHEVK  3.73
53. CVQCKMIVCYQCLEEGKHSSHEVK  3.69
54. CVQCKMPVCYSCLEEGKHSSHEVK  3.67
55. CVQCKMSVCYQCLEEGKHSSHEVK  3.65
56. CVQCKMPVCYFCLEEGKHSSHEVK  3.65
57. CVQCKPPVCYQCLEEGKHSSHEVK  3.62
58. CVICKMPVCYQCLEEGKHSSHEVK  3.6
59. CVQCKMPVCYECLEEGKHSSHEVK  3.57
60. CVTCKMPVCYQCLEEGKHSSHEVK  3.56
61. CVQCPMPVCYQCLEEGKHSSHEVK  3.52
62. CVQCKMVVCYQCLEEGKHSSHEVK  3.52
63. CVQCKMPVCYYCLEEGKHSSHEVK  3.52
64. CVQCKMRVCYQCLEEGKHSSHEVK  3.51
65. CVQCAMPVCYQCLEEGKHSSHEVK  3.4
66. CVQCKMPVCYICLEEGKHSSHEVK  3.4
67. CVMCKMPVCYQCLEEGKHSSHEVK  3.4
68. CVQCKIPVCYQCLEEGKHSSHEVK  3.4
69. CVQCKMPVCYQALEEGKHSSHEVK  3.35
70. CVQCKMLVCYQCLEEGKHSSHEVK  3.28
71. CVQCKMPVCYVCLEEGKHSSHEVK  3.27
72. CVQCKMHVCYQCLEEGKHSSHEVK  3.23
73. CVQCKMPVCYHCLEEGKHSSHEVK  3.2
74. CVQCKMPVCYQFLEEGKHSSHEVK  3.19
75. CVQCKMWVCYQCLEEGKHSSHEVK  3.18
76. CVQCKMPVCYMCLEEGKHSSHEVK  3.17
77. CVQCKMDVCYQCLEEGKHSSHEVK  3.11
78. CVFCKMPVCYQCLEEGKHSSHEVK  3.1
79. CVQCKMTVCYQCLEEGKHSSHEVK  3.08
80. CVYCKMPVCYQCLEEGKHSSHEVK  3.04
81. CVQCWMPVCYQCLEEGKHSSHEVK  3.03
82. CVACKMPVCYQCLEEGKHSSHEVK  2.96
83. CVPCKMPVCYQCLEEGKHSSHEVK  2.94
84. CVQCKMPVCYWCLEEGKHSSHEVK  2.93
85. CVWCKMPVCYQCLEEGKHSSHEVK  2.88
86. CVQCQMPVCYQCLEEGKHSSHEVK  2.83
87. CVQCLMPVCYQCLEEGKHSSHEVK  2.58
88. CVQCYMPVCYQCLEEGKHSSHEVK  2.56
89. CVQCFMPVCYQCLEEGKHSSHEVK  2.52
90. CVQCKMFVCYQCLEEGKHSSHEVK  2.48
91. CVQCVMPVCYQCLEEGKHSSHEVK  2.41
92. CVQCIMPVCYQCLEEGKHSSHEVK  2.05
93. CVQCKMPVCYLCLEEGKHSSHEVK  2
94. YVQCKMPVCYQCLEEGKHSSHEVK  1.74
